Reference: paper PMC7539298

Tests used:
[1] = biological target: Nterm5 (UniProt position 676, …); test: potentiometry; settings: 25 °C; 0.1 M (KNO3); none; 1.0 mM peptide in 4 mM HNO3/96 mM KNO3, under argon; apo peptide (no metal)
[2] = biological target: Glu11 (UniProt position 682, …); test: potentiometry; settings: 25 °C, 0.1 M (KNO3), none, 1.0 mM peptide in 4 mM HNO3/96 mM KNO3, under argon
[3] = biological target: Asp7 (UniProt position 678, …); test: potentiometry; settings: 25 °C, 0.1 M (KNO3), none, 1.0 mM peptide in 4 mM HNO3/96 mM KNO3, under argon
[4] = biological target: His6 (UniProt position 677, …); test: potentiometry; settings: 25 °C; 0.1 M (KNO3); none; 1.0 mM peptide in 4 mM HNO3/96 mM KNO3, under argon; apo peptide (no metal)
[5] = biological target: Tyr10 (UniProt position 681, …); test: UV-vis; settings: 25 °C; none stated; titrated with concentrated NaOH; Cu(II)-bound: 0.9 mM Cu(II), 1.0 mM peptide
[6] = biological target: Tyr10 (UniProt position 681, …); test: potentiometry; settings: 25 °C; 0.1 M (KNO3); none; 1.0 mM peptide in 4 mM HNO3/96 mM KNO3, under argon; apo peptide (no metal)
[7] = biological target: Tyr10 (UniProt position 681, …); test: other (circular dichroism); settings: 25 °C; none stated; titrated with concentrated NaOH; Cu(II)-bound: 0.9 mM Cu(II), 1.0 mM peptide
[8] = Cu(II)-bound, mononuclear 3N complex (Arg5 N-terminal amine, Arg5-His6 amide N-, His6 imidazole, equatorial H2O), peptide:metal ratios 1:2, 1:1 and 1:0.5

Row | Protein | pKa [1] | pKa [2, 8] | pKa ([2]; apo peptide (no metal)) | pKa [3, 8] | pKa ([3]; apo peptide (no metal)) | pKa [4] | pKa [5] | pKa [6] | pKa [7]
1 | RHDSGYEVHHQK [Amyloid-beta peptide fragment 5-16 (Abeta5-16) (Homo sapiens)] | 7.60 | 4.169 | 3.92 | 3.212 | 2.48 | – | – | – | –
2 | RHDSG [Amyloid-beta peptide fragment 5-9 (Abeta5-9) (Homo sapiens)] | 7.37 | – | – | 3.82 | 3.17 | 6.13 | – | – | –
3 | RHDSGYEV [Amyloid-beta peptide fragment 5-12 (Abeta5-12) (Homo sapiens)] | 7.52 | 4.69 | 4.37 | 3.23 | 2.73 | 6.25 | 8.95(7) | 10.08 | 8.89(3)
